T1: spectrin β chain domains 10–14 (human, UniProt P11277 1272-1804)
T1 construct: human erythrocyte β spectrin, UniProt P11277, residues 1272-1804; also called β10–14; source: E. coli Rosetta2(DE3), purified (Talon, Q-Sepharose, Superdex 75 or 200); not shown: His10 or His6 (modified pET16b or pET15b), N-terminal, cleaved
T1 sequence (looked up): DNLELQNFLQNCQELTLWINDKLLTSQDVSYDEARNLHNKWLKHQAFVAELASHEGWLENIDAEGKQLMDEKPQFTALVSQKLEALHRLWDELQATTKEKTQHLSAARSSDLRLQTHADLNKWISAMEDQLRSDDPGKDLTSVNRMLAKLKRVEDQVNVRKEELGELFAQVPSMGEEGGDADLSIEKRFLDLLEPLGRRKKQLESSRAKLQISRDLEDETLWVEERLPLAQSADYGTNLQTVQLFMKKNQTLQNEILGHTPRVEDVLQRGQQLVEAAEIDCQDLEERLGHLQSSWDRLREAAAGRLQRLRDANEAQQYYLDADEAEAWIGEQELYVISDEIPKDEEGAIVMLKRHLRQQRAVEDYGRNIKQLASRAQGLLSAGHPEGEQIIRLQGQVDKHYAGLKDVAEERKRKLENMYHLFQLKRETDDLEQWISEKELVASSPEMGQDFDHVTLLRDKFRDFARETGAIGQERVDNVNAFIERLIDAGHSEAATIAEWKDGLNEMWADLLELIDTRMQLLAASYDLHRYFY

B1: KAHRP 5´-repeat scrambled sequence, Scramble 3 (peptide)
chain: CHDNKGKKSHDSSGDKKHKNKKSKKKKESPTVDKKEKHEVKKKHKNKKDDVHSEEASKEENKKTEKGKNEKESNAKKSKNSHHDSKKGKEHEGSSKNKDHDKKEKNSDESKKGES
modifications: 5-carboxyfluorescein (5-FAM) on a single cysteine at the protein N-terminus
notes: amino acid content of the KAHRP 5´ repeat, randomly scrambled; also called scrambled peptide; source: E. coli, recombinant, purified as the KAHRP fragments; not shown: His10, N-terminal, cleaved
B2: KAHRP 5´-repeat scrambled sequence, Scramble 2 (peptide)
chain: CEKSDDKKESKSKHDGSVKKKSEEKKKDNESSTKSDGKNKKNKKHNEHESKHEHKGEGKKKEHGSNEDHKKKNDNEVKGKHKKSPKKKAETKKNSSHDSDKKEKDSSKKVHNEAK
modifications: 5-carboxyfluorescein (5-FAM) on a single cysteine at the protein N-terminus
notes: as for B1
B3: KAHRP 5´-repeat scrambled sequence, Scramble 1 (peptide)
chain: CGGSDNSEKNKKEHKKEKSAHEKEKDKKAEHKKDKDGSKKSSEKKKNSTKEHESSEHNHSEHKKSDNHKKKKENKEDDSEKEKNKKSDVVSDNKKTHKKGGKKKSKPKGNKSVHD
modifications: 5-carboxyfluorescein (5-FAM) on a single cysteine at the protein N-terminus
notes: as for B1
B4: KAHRP 5´-repeat scrambled sequence, Scramble 4 (peptide)
chain: CESNKKNGHEKGGKKSESKHKKKDHAEKEPKNKKGAHHDDSDKSKTKHNSESDEKVHKSESKEKSKDKVGNKGKEKKVSNSEKKDKNKKDHSHSKETKEKDEKDKKHKSSNKENK
modifications: 5-carboxyfluorescein (5-FAM) on a single cysteine at the protein N-terminus
notes: as for B1

Here are results for four molecules from article PMC5570508, “Structural analysis of P. falciparum KAHRP and PfEMP1 complexes with host erythrocyte spectrin suggests a model for cytoadherent knob protrusions” (PLoS Pathogens, 2017).

The assay addresses T1, spectrin β chain domains 10–14. The experiment in a line: fluorescence polarisation; titration: 5-FAM-labeled protein at 0.5 or 1 μM titrated with unlabeled protein; 20°C; analysis buffer (20 mM NaH2PO4, 50 mM NaCl, 1 mM DTT pH 7); single site binding model. Particulars: both partners purified.
Turning to B1, the binding result is “binds”.
Next, B2: “binds”; B3: “binds”; B4: “binds”.
